Test results reported in patent publication US20200332015A1 (NAMAB THERAPEUTICS, published 2020).
Blank lines part the entries; values can stand above or below the binder they belong to.

How the values were obtained:
[1] = target: T1, human CD137 expressed on Jurkat cells (human, UniProt Q07011 24-255); test: cell-based or functional assay
[2] = target: T1, human CD137 expressed on Jurkat cells; test: cell-based or functional assay; remark: listed apart in the source
[3] = target: T1, human CD137 expressed on Jurkat cells; test: cell-based or functional assay; remark: listed apart in the source
[4] = target: T1, human CD137 expressed on Jurkat cells; test: cell-based or functional assay; remark: listed apart in the source
[5] = target: T2, human serum albumin (human, UniProt P02768 25-609); test: SPR T200, SA coupled to chip, pH 5.5
T2 construct: also called human SA; HSA
Procedure: (§1) Affinity of molecules to serum albumin (SA) of the different species was determined by SPR measurements using a Biacore T200 device (GE Healthcare). SA was directly coupled to a CM5 sensor chip (GE Healthcare) using amine coupling chemistry. […] The assay was run in a 1×PBS-Tween buffer at pH 5.5.

[6] = target: T3, mouse serum albumin (mouse, UniProt P07724 25-608); test: SPR T200, SA coupled to chip, pH 5.5
T3 construct: also called mouse SA; MSA
Procedure: as §1

[7] = target: human PDL1-Fc chimeric protein (human, UniProt Q9NZQ7 19-238, limits assumed); test: SPR T200, antigen-Fc captured, molecule as analyte
Summary of the method: (§2)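 Biacore T200: anti-Fc antibody amine-coupled on CM5 chip captures chimeras of different species. Molecules injected as three-fold dilutions (0.12-90 nM) for 3 min, dissociation 10 min, 3 M MgCl₂ regeneration. Apparent ka, kd and KD from 1:1 Langmuir fit.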

[8] = target: T4, Fc tagged human CD137 (R&D Systems, cat. 838-4B-100) (human, UniProt Q07011 24-186); test: SPR T200, antigen-Fc captured, molecule as analyte
T4 construct: also called CD137 Fc chimera; human CD137-Fc chimeric protein
Summary of the method: as §2

[9] = target: T5, cynomolgus monkey Fc-tagged CD137 (R&D Systems, cat. 9324-4B-100) (cynomolgus monkey, UniProt A9YYE7 24-186); test: SPR T200, antigen-Fc captured, molecule as analyte
T5 construct: also called cynomolgus CD137-Fc chimeric protein
Summary of the method: as §2

[10] = target: T6, mouse Fc-tagged mouse CD137 (R&D Systems, cat. 937-4B-050) (mouse, UniProt P20334 24-187); test: SPR T200, antigen-Fc captured, molecule as analyte
T6 construct: also called mouse CD137-Fc chimeric protein
T6 sequence (looked up): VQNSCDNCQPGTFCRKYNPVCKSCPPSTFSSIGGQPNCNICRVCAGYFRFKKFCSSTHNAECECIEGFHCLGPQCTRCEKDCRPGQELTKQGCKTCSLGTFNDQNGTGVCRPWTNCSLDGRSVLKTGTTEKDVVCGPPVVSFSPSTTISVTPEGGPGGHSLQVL
Summary of the method: as §2

[11] = target: T7, recombinant human CD137 extracellular domain (Peprotech, cat. 310-15-1MG) (human, UniProt Q07011 24-186); test: SPR T200, Morrison format captured, ECD analyte
T7 construct: also called human CD137 ECD; CD137 ECD
Procedure: (§3) Affinity to PDL1 of the different species was determined by SPR measurements using a Biacore T200 device (GE Healthcare). An antibody specific for the Fc region of human IgGs was immobilized on a sensor chip (CM5 sensor chip, GE Healthcare) by amine-coupling. For all formats, with the exception of the Fc containing Morrison formats, PDL1-Fc chimeric protein from different species were captured by the immobilized antibody. Three-fold serial dilutions of the molecules specific for PDL1 (0.12-90 nM) were injected into the flow cells for three minutes and dissociation was monitored for 10 minutes. After each injection cycle, surfaces were regenerated with one injection of a 3 M MgCl₂ solution. The apparent dissociation (kd) and association (kₐ) rate constants and the apparent dissociation equilibrium constant (KD) were calculated using one-to-one Langmuir binding model. Affinity to CD137 of the different species was determined using the identical setup as for PDL1 with the exception that CD137-Fc chimeric proteins from different species were captured by the immobilized antibody.
(§4) The Fc containing formats were directly captured by the antibody specific for the Fc region of human IgGs. Two-fold serial dilutions of PDL1 extracellular domain or CD137 extracellular domain ranging from 90 to 0.35 nM were tested for binding to the IgG captured on the biosensor chip. After each injection cycle, surfaces were regenerated with one injection of a 3 M MgCl2 solution.

[12] = target: T8, human PDL1 extracellular domain (human, UniProt Q9NZQ7 19-238); test: SPR T200, Morrison format captured, ECD analyte
T8 construct: extracellular domain; Analyte for the Fc containing Morrison formats
Procedure: as §3, §4

T5 sequence (A9YYE7 entry or part of it): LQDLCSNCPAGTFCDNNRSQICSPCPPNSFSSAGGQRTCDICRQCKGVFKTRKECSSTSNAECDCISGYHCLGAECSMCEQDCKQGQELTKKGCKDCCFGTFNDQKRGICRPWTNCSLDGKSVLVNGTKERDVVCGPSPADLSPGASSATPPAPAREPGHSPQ

- EC50 NFkB-luciferase, CHO-PDL1 cells, 6 h, + HSA [1]: 0.112 µg/mL
- Top of curve fit, NFkB-luciferase, CHO-PDL1 cells, 6 h, + HSA [1]: 463
- EC50 NFkB-luciferase, CHO-PDL1 cells, 24 h, + HBA (so in the source) [2]: 0.792 µg/mL
- Top of curve fit, NFkB-luciferase, CHO-PDL1 cells, 24 h, + HBA (so in the source) [2]: 745
- EC50 NFkB-luciferase, HCC827 with IFNy stimulation, +HSA [3]: 0.115 µg/mL
- EC50 NFkB-luciferase, HCC827 without IFNy stimulation, +HSA [3]: 0.0766 µg/mL
- max. activation, HCC827 +IFNg, 24h [4]: 135%
- max. activation, NF-kB reporter gene, CHO-PD-L1, 24h [4]: 663%
- rel. IC50 (urelumab/test), HCC827 +IFNg, 24h [4]: 0.46 ratio
- rel. IC50 (urelumab/test), HCC827 -IFNg, 24h [4]: 0.62 ratio
- rel. IC50 (urelumab/test), NF-kB reporter gene, CHO-PD-L1, 24h [4]: 0.1 ratio
- Kd [5]: 2.8 nM
- koff [5]: 0.00067 s⁻¹
- kon [5]: 240000 M⁻¹ s⁻¹
- Kd [6]: 66 nM
- koff [6]: 0.0085 s⁻¹
- kon [6]: 130000 M⁻¹ s⁻¹
- Kd [7]: 0.11 nM
- koff [7]: 0.00017 s⁻¹
- kon [7]: 1.6e+06 M⁻¹ s⁻¹
- Kd [8]: 5.1 nM
- koff [8]: 0.0007 s⁻¹
- kon [8]: 140000 M⁻¹ s⁻¹
- Kd [9]: 4.8 nM
- koff [9]: 0.00079 s⁻¹
- kon [9]: 160000 M⁻¹ s⁻¹
- Kd [10]: 1200 nM
- koff [10]: 0.085 s⁻¹
- kon [10]: 69000 M⁻¹ s⁻¹
B1: PRO1057 (38_02_A04 sc01 scDb-i/33-03-G02 sc01 scDb-o/mxr HSA (23-13-A01-sc03, sk17sh4)) (other)
chain: DIQMTQSPSSLSASVGDRVTITCQASQSINDYLAWYQQKPGKAPKLLIYKASTLASGVPSRFSGSGSGTDFTLTISSLQPEDFATYYCQQGYIITDIDNVFGTGTKVTVLGGGGGSQVQLQESGPGLVKPSETLSLTCKVSGFSFSNSYWICWIRQPPGKGLEWIGCTFVGSSDSTYYANWAKGRVTISVDSSKNQFSLKLSSVTAADTAVYYCARHPSDAVYGYANNLWGQGTLVTVSSGGGGSGGGGSGGGGSGGGGSIQMTQSPSSLSASVGDRVTITCQASQSINNVLAWYQQKPGKAPKLLIYRASTLASGVPSRFSGSGSGTDFTLTISSLQPEDFATYYCQSSYGNYGDFGTGTKVTVLGGGGGSQVQLQESGPGLVKPSETLSLTCKVSGFSFSSGYDMCWIRQPPGKGLEWIGCVVAGSVDITYYASWAKGRVTISVDSSKNQFSLKLSSVTAADTAVYYCARKDAYSDAFNLWGQGTLVTVSSGGGGSGGGGSVVMTQSPSSLSASVGDRVTITCQASQIISSRSAWYQQKPGQPPKLLIYQASKLASGVPSRFSGSGSGTDFTLTISSLQPEDFATYYCQCTYIDSNFGAFGGGTKLTVLGGGGGSGGGGSGGGGSGGGGSEVQLVESGGGLVQPGGSLRLSCAASGFSFSSSYWICWVRQAPGKGLEWVGCVFTGDGTTYYASWAKGRFTISRDNSKNTVYLQMNSLRAEDTATYFCARPVSVYYYGMDLWGQGTLVTVSS
notes: Trispecific scDb-scFv

- EC50 NFkB-luciferase, CHO-PDL1 cells, 6 h [1]: 0.0564 µg/mL
- EC50 NFkB-luciferase, CHO-PDL1 cells, 24 h [2]: 0.0808 µg/mL
- EC50 NFkB-luciferase, HCC827 with IFNy stimulation [3]: 0.0175 µg/mL
- EC50 NFkB-luciferase, HCC827 without IFNy stimulation [3]: 0.0136 µg/mL
- max. activation, HCC827 +IFNg, 24h [4]: 97%
- max. activation, NF-kB reporter gene, CHO-PD-L1, 24h [4]: 144%
- rel. IC50 (urelumab/test), HCC827 +IFNg, 24h [4]: 3.01 ratio
- rel. IC50 (urelumab/test), HCC827 -IFNg, 24h [4]: 3.5 ratio
- rel. IC50 (urelumab/test), NF-kB reporter gene, CHO-PD-L1, 24h [4]: 0.58 ratio
- Kd [11]: 1.3 nM
- koff [11]: 0.00039 s⁻¹
- kon [11]: 300000 M⁻¹ s⁻¹
- Kd [12]: 0.036 nM
- koff [12]: 4.6e-05 s⁻¹
- kon [12]: 1.3e+06 M⁻¹ s⁻¹
B2: PRO1060 (33-03-G02 IgG1 HC with 38_02_A04 sc01 scFv, PDL1/CD137(scFv) silent Morrison) (bispecific antibody)
light: DIQMTQSPSSLSASVGDRVTITCQASQSINDYLAWYQQKPGKAPKLLIYKASTLASGVPSRFSGSGSGTDFTLTISSLQPEDFATYYCQQGYIITDIDNVFGTGTKVTVLGTVAAPSVFIFPPSDEQLKSGTASVVCLLNNFYPREAKVQWKVDNALQSGNSQESVTEQDSKDSTYSLSSTLTLSKADYEKHKVYACEVTHQGLSSPVTKSFNRGEC
heavy: QVQLQESGPGLVKPSETLSLTCKVSGFSFSSGYDMCWIRQPPGKGLEWIGCVVAGSVDITYYASWAKGRVTISVDSSKNQFSLKLSSVTAADTAVYYCARKDAYSDAFNLWGQGTLVTVSSASTKGPSVFPLAPSSKSTSGGTAALGCLVKDYFPEPVTVSWNSGALTSGVHTFPAVLQSSGLYSLSSVVTVPSSSLGTQTYICNVNHKPSNTKVDKRVEPKSCDKTHTCPPCPAPEAAGGPSVFLFPPKPKDTLMISRTPEVTCVVVDVSHEDPEVKFNWYVDGVEVHNAKTKPREEQYNSTYRVVSVLTVLHQDWLNGKEYKCKVSNKALGAPIEKTISKAKGQPREPQVYTLPPSREEMTKNQVSLTCLVKGFYPSDIAVEWESNGQPENNYKTTPPVLDSDGSFFLYSKLTVDKSRWQQGNVFSCSVMHEALHNHYTQKSLSLSPGKGGGGSGGGGSIQMTQSPSSLSASVGDRVTITCQASQSINNVLAWYQQKPGKAPKLLIYRASTLASGVPSRFSGSGSGTDFTLTISSLQPEDFATYYCQSSYGNYGDFGTGTKVTVLGGGGGSGGGGSGGGGSGGGGSQVQLQESGPGLVKPSETLSLTCKVSGFSFSNSYWICWIRQPPGKGLEWIGCTFVGSSDSTYYANWAKGRVTISVDSSKNQFSLKLSSVTAADTAVYYCARHPSDAVYGYANNLWGQGTLVTVSS
notes: IgG1 with scFv fused to the heavy chain; called bivalent; also called Morrison-H

- max. activation, NF-kB reporter gene, CHO-PD-L1, 24h [4]: 189%
- rel. IC50 (urelumab/test), NF-kB reporter gene, CHO-PD-L1, 24h [4]: 0.09 ratio
- Kd [11]: 2.3 nM
- koff [11]: 0.00042 s⁻¹
- kon [11]: 180000 M⁻¹ s⁻¹
- Kd [12]: 0.056 nM
- koff [12]: 6.5e-05 s⁻¹
- kon [12]: 1.2e+06 M⁻¹ s⁻¹
B3: PRO1059 (33-03-G02 IgG1 LC with 38_02_A04 sc01 scFv, PDL1/CD137(scFv) silent Morrison) (bispecific antibody)
light: DIQMTQSPSSLSASVGDRVTITCQASQSINDYLAWYQQKPGKAPKLLIYKASTLASGVPSRFSGSGSGTDFTLTISSLQPEDFATYYCQQGYIITDIDNVFGTGTKVTVLGTVAAPSVFIFPPSDEQLKSGTASVVCLLNNFYPREAKVQWKVDNALQSGNSQESVTEQDSKDSTYSLSSTLTLSKADYEKHKVYACEVTHQGLSSPVTKSFNRGECGGGGSGGGGSIQMTQSPSSLSASVGDRVTITCQASQSINNVLAWYQQKPGKAPKLLIYRASTLASGVPSRFSGSGSGTDFTLTISSLQPEDFATYYCQSSYGNYGDFGTGTKVTVLGGGGGSGGGGSGGGGSGGGGSQVQLQESGPGLVKPSETLSLTCKVSGFSFSNSYWICWIRQPPGKGLEWIGCTFVGSSDSTYYANWAKGRVTISVDSSKNQFSLKLSSVTAADTAVYYCARHPSDAVYGYANNLWGQGTLVTVSS
heavy: QVQLQESGPGLVKPSETLSLTCKVSGFSFSSGYDMCWIRQPPGKGLEWIGCVVAGSVDITYYASWAKGRVTISVDSSKNQFSLKLSSVTAADTAVYYCARKDAYSDAFNLWGQGTLVTVSSASTKGPSVFPLAPSSKSTSGGTAALGCLVKDYFPEPVTVSWNSGALTSGVHTFPAVLQSSGLYSLSSVVTVPSSSLGTQTYICNVNHKPSNTKVDKRVEPKSCDKTHTCPPCPAPEAAGGPSVFLFPPKPKDTLMISRTPEVTCVVVDVSHEDPEVKFNWYVDGVEVHNAKTKPREEQYNSTYRVVSVLTVLHQDWLNGKEYKCKVSNKALGAPIEKTISKAKGQPREPQVYTLPPSREEMTKNQVSLTCLVKGFYPSDIAVEWESNGQPENNYKTTPPVLDSDGSFFLYSKLTVDKSRWQQGNVFSCSVMHEALHNHYTQKSLSLSPGK
notes: IgG1 with scFv fused to the light chain; also called Morrison-L
